Assay: Stability of Compound 1 at long-term storage condition of −80° C.
Assay type: physicochemical

PEO90-140-b-P(DBA60-150-r-ICG0-3-r-AMA0-3) [Compound 1]
% ICG 784 nm (% wt) (0 months): 1.3% | Appearance (0 months): Pass | Assay RID - Polymeric Content SEC (% wt) (0 months): 96.4% | Content 784 nm (% wt) (0 months): 80.9% | Identification - SEC (RT) (0 months): Pass | Impurities Specified: ICG-like (0 months): 1.9% | Microbial Limits Total aerobic count (0 months): <1 cfu/mg | Microbial Limits Total yeast and mold (0 months): <1 cfu/mg | Total Impurities (0 months): 1.9% | Water Content (0 months): 0.48% | Duration stable at long-term storage condition (3.0 mg/mL injection, the duration thus far): up to 24 months | % ICG 784 nm (% wt) (1 month): 1.4% | Appearance (1 month): Pass | Assay RID - Polymeric Content SEC (% wt) (1 month): 98.5% | Content 784 nm (% wt) (1 month): 82.0% | Identification - SEC (RT) (1 month): Pass | Impurities Specified: ICG-like (1 month): 1.8% | Total Impurities (1 month): 1.8% | Water Content (1 month): 0.33% | % ICG 784 nm (% wt) (6 months): 1.4% | Appearance (6 months): Pass | Assay RID - Polymeric Content SEC (% wt) (6 months): 102.3% | Content 784 nm (% wt) (6 months): 86.2% | Identification - SEC (RT) (6 months): Pass | Impurities Specified: ICG-like (6 months): 1.7% | Total Impurities (6 months): 1.7% | Water Content (6 months): 0.54% | % ICG 784 nm (% wt) (12 months): 1.3% | Appearance (12 months): Pass | Assay RID - Polymeric Content SEC (% wt) (12 months): 90.4% | Content 784 nm (% wt) (12 months): 74.7% | Identification - SEC (RT) (12 months): Pass | Impurities Specified: ICG-like (12 months): 1.7% | Microbial Limits Total aerobic count (12 months): <1 cfu/mg | Microbial Limits Total yeast and mold (12 months): <1 cfu/mg | Total Impurities (12 months): 1.7% | Water Content (12 months): 0.74% | % ICG 784 nm (% wt) (18 months): 1.5% | Appearance (18 months): Pass | Assay RID - Polymeric Content SEC (% wt) (18 months): 100.4% | Content 784 nm (% wt) (18 months): 94.7% | Identification - SEC (RT) (18 months): Pass | Impurities Specified: ICG-like (18 months): 0.6% | Total Impurities (18 months): 0.6% | Water Content (18 months): 0.64% | % ICG 784 nm (% wt) (24 months): 1.5% | Appearance (24 months): Pass | Assay RID - Polymeric Content SEC (% wt) (24 months): 99.7% | Content 784 nm (% wt) (24 months): 98.1% | Identification - SEC (RT) (24 months): Pass | Impurities Specified: ICG-like (24 months): 0.6% | Microbial Limits Total aerobic count (24 months): <1 cfu/mg | Microbial Limits Total yeast and mold (24 months): <1 cfu/mg | Total Impurities (24 months): 0.6% | Water Content (24 months): 0.51%
